From patent publication US20250223358A1
Where “and” joins values, the source holds several entries; their conditions need not be identical. Identical values can stand only once.

Target: human CD3 (human) (UniProt P07766)
Experiment: cell-based or functional assay

human CD3 (human), sequence (P07766 23-207, chain 1 of 3): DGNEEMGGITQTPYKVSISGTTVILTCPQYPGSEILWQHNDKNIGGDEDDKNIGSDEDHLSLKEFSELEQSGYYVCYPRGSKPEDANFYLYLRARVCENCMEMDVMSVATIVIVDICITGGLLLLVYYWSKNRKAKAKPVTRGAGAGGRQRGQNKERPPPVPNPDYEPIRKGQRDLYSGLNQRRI
human CD3 (human), sequence (P04234 22-171, chain 2 of 3, further chain): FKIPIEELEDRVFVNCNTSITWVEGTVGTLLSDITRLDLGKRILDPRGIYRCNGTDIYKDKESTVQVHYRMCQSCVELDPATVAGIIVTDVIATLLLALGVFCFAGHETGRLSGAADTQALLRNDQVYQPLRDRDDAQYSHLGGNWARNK
human CD3 (human), sequence (P09693 23-182, chain 3 of 3, further chain): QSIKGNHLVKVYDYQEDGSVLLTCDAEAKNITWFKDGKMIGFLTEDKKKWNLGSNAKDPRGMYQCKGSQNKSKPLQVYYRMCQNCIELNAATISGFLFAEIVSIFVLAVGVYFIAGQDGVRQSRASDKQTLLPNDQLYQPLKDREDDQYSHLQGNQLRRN

With Isotype control (antibody) the RLU (Jurkat-NFAT-luciferase activation, antibody coated at 50 ug/mL), Plate 1 was 564 RLU and 582 RLU, the RLU (Jurkat-NFAT-luciferase activation, antibody coated at 50 ug/mL), Plate 2 was 386 RLU and 380 RLU and the RLU (Jurkat-NFAT-luciferase activation, antibody coated at 50 ug/mL), Plate 3 was 237 RLU and 231 RLU.
